The chains are these.
B1: ADI-11826 Fab (Fab, V domains shown)
VH: EVQLVESGGGLVQPGGSLRLSCAASGFTFPGYWMSWVRQAPGKGLEWVANINQDGSEVYYVDSVKGRFTISRDNAKNSLYLQMNSLRAEDTAVYYCAREANYYGNVGDDYWGQGTLVTVSS
VL: DIQMTQSPSSLSASVGDRVTITCRASQSIYNYLNWYQQKPGKAPKLLIYAASSTQSGVPSRFSGSGSGTDFTLTISSLQPEDFATYYCQQAFHVPITFGGGTKVEIK
B2: ADI-11825 Fab (Fab, V domains shown)
VH: B1 VH with P30G, V58E
VL: B1 VL with S53N, T54L, Q55H
B3: ADI-11828 Fab (Fab, V domains shown)
VH: EVQLVESGGGLVQPGGSLRLSCAASGFTFSSYWMSWVRQAPGKGLEWVANINQDGSEVYYVDSVKGRFTISRDNAKNSLYLQMNSLRAEDTAVYYCARDVGPGIAYQGHFDYWGQGTLVTVSS
VL: B1 VL with N31Y, T54R, A91V, F92Y, H93D, V94T, I96L
B4: ADI-10157 Fab (Fab, V domains shown)
VH: QVQLQESGPGLVKPSETLSLTCTVSGGSISSYYWSWIRQPPGKGLEWIGSIYYSGSTNYNPSLKSRVTISVDTSKNQFSLKLSSVTAADTAVYYCARVGGVYSTIETYGMDVWGQGTTVTVSS
VL: EIVMTQSPATLSVSPGERATLSCRASQSVSSNLAWYQQKPGQAPRLLIYGASTRATGIPARFSGSGSGTEFTLTISSLQSEDFAVYYCQQYTVYPPTFGGGTKVEIK
B5: ADI-11812 Fab (Fab, V domains shown)
VH: QVQLVQSGAEVKKPGASVKVSCKASGYTFEIYYMHWVRQAPGQGLEWMGIINPSSGSTVYAQKFQGRVTMTRDTSTSTVYMELSSLRSEDTAVYYCARGAGYDDEDMDVWGKGTTVTVSS
VL: DIQMTQSPSSVSASVGDRVTITCRASQGIDSWLAWYQQKPGKAPKLLIYAASSLQSGVPSRFSGSGSGTDFTLTISSLQPEDFATYYCQQAHSYPLTFGGGTKVEIK
B6: ADI-10161 Fab (Fab, V domains shown)
VH: EVQLVESGGGLVQPGGSLRLSCAASGFTFSSYWMSWVRQAPGKGLEWVANINQDGSEKYYVDSVKGRFTISRDNAKNSLYLQMNSLRAEDTAVYYCAREGGDSWYHAFDIWGQGTMVTVSS
VL: B5 VL with D30S, S53N, A91K, H92L, Y94L
B7: ADI-11839 Fab (Fab, V domains shown)
VH: QVQLVQSGAEVKKPGASVKVSCKASGYTFSNYYMHWVRQAPGQGLEWMGWINPFSGGTRYAQKFQGRVTMTRDTSTSTVYMELSSLRSEDTAVYYCARDVGSSAYYYMDVWGKGTTVTVSS
VL: B5 VL with R24E, Q27K, D30S, S53D, H92F, S93L, Y94F, L96P
B8: ADI-11830 Fab (Fab, V domains shown)
VH: B3 VH with Q53T
VL: B1 VL with S28V, N31S, T54L, Q55K, A91V, F92Y, H93D, V94T, I96L
B9: ADI-10159 Fab (Fab, V domains shown)
VH: EVQLVESGGGLVQPGGSLRLSCAASGFTFSSYGMSWVRQAPGKGLEWVANIKQDGSEKYYVDSVKGRFTISRDNAKNSLYLQMNSLRAEDTAVYYCAREGGPYYDSSGYFVYYGMDVWGQGTTVTVSS
VL: DIQMTQSPSTLSASVGDRVTITCRASQSISSWLAWYQQKPGKAPKLLIYDASSLESGVPSRFSGSGSGTEFTLTISSLQPDDFATYYCQQYESFPTFGGGTKVEIK
B10: ADI-11776 Fab (Fab, V domains shown)
VH: EVQLLESGGGLVQPGGSLRLSCAASGFTFSKYTMSWVRQAPGKGLEWVSAIVGSGESTYFADSVKGRFTISRDNSKNTLYLQMNSLRAEDTAVYYCAREGGPYYDSSGYFVYYGMDVWGQGTTVTVSS
VL: B9 VL with D50K, E92D, S93D, F94L
B11: ADI-11819 Fab (Fab, V domains shown)
VH: EVQLVESGGGLVKPGGSLRLSCAASGFTFSSYAMSWVRQAPGKGLEWVSSISSSSEGIYYADSVKGRFTISRDNAKNSLYLQMNSLRAEDTAVYYCAREGGPYYDSSGYFVYYGMDVWGQGTTVTVSS
VL: B9 VL with Q27N, D50E, L54T, E55K, E92D, S93D, F94L
B12: ADI-10177 Fab (Fab, V domains shown)
VH: EVQLVESGGGLVQPGGSLRLSCAASGFTFSSYWMSWVRQAPGKGLEWVANIKQDGSEKYYVDSVKGRFTISRDNAKNSLYLQMNSLRAEDTAVYYCARPLNAGELDVWGQGTMVTVSS
VL: B5 VL with S10T, V11L, G28S, D30S, A50E, Q55E, D70E, E81D, A91L, H92E
B13: ADI-11807 Fab (Fab, V domains shown)
VH: B12 VH with S30G, N50T, Y59S
VL: DIQMTQSPSTLSASVGDRVTITCRASQSISSWLAWYQQKPGKAPKLLIYEASSLESGVPSRFSGSGSGTEFTLTISSLQPDDFATYYCQQSQSYPPITFGGGTKVEIK
B14: ADI-11815 Fab (Fab, V domains shown)
VH: B5 VH with E30G, I31T, S55R
VL: B5 VL
B15: ADI-11809 Fab (Fab, V domains shown)
VH: B12 VH with S30P, N50T, Q53R, Y59G
VL: B13 VL
B16: ADI-11835 Fab (Fab, V domains shown)
VH: QLQLQESGPGLVKPSETLSLTCTVSGGSISSTDYYWGWIRQPPGKGLEWIGSIGYSGTYYNPSLKSRVTISVDTSKNQFSLKLSSVTAADTAVYYCARETAHDVHGMDVWGQGTTVTVSS
VL: EIVLTQSPATLSLSPGERATLSCRASHSVYSYLAWYQQKPGQAPRLLIYDASNRATGIPARFSGSGSGTDFTLTISSLEPEDFAVYYCQQYDNLPTFGGGTKVEIK

Residue numbers refer to the chain shown, from its start.

The Kd is a measure of binding affinity in units of concentration. Usually koff stands for the rate constant with which the complex falls apart. Higher therefore signals fast dissociation. What is called kon is a measure of how fast the partners come together. High values mean fast association, low ones slow association.

Chain of human CD33 R69G (human) (P20138 18-259 R69G): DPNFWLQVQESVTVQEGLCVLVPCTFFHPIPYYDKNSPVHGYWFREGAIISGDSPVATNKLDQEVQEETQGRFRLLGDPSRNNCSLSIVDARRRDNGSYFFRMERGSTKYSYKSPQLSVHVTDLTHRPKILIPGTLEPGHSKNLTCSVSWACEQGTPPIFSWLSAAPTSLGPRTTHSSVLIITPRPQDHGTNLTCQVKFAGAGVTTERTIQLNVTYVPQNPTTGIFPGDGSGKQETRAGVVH
Chain of human CD33 S128N (human) (P20138 18-259 S128N): as the sequence (P20138 18-259 R69G) above, with G52R, S111N counted along it

The first assay concerns the target human CD33 S128N (human) (UniProt P20138). Description: SPR, Fab captured, 37C. For orientation: SPR reads the build-up and loss of mass on a sensor chip optically.
In the case of B1, the Kd was found to be 2.65 nM, the koff was 0.00574 s⁻¹ and the kon was found to be 2.17e+06 M⁻¹ s⁻¹.
Molecule B2 returned a Kd of 3.09 nM, a koff of 0.00649 s⁻¹ and a kon of 2.1e+06 M⁻¹ s⁻¹.
On the same counts, the results for B3 are 5.41 nM, 0.00742 s⁻¹ and 1.37e+06 M⁻¹ s⁻¹.
In turn, B4 showed a Kd of 163 nM, a dissociation rate constant (koff) of 0.00924 s⁻¹ and a kon of 56500 M⁻¹ s⁻¹.
For B5, in that order: 2.01 nM, 0.00112 s⁻¹ and 556000 M⁻¹ s⁻¹.
Molecule B6 displayed a Kd of 63.6 nM, a koff of 0.0385 s⁻¹ and an association rate constant (kon) of 605000 M⁻¹ s⁻¹.
On to B7, for which the Kd was determined as 29.5 nM, the koff turned out to be 0.0284 s⁻¹ and the kon came out at 963000 M⁻¹ s⁻¹.

A further assay has as its target human CD33 R69G (human) (UniProt P20138). The assay can be described thus: SPR, Fab captured, 37C.
In turn, B8 returned a Kd of 2.94 nM, a koff of 0.00663 s⁻¹ and a kon of 2.27e+06 M⁻¹ s⁻¹.
For B1, the Kd came out at 3.83 nM, the koff was 0.00723 s⁻¹ and the kon came out at 1.89e+06 M⁻¹ s⁻¹.
With B2, the Kd stood at 3.74 nM, the koff is 0.00695 s⁻¹ and the kon was 1.86e+06 M⁻¹ s⁻¹.
Regarding B3, the Kd was determined as 6.03 nM, the koff is 0.007 s⁻¹ and the on-rate (kon) was determined as 1.16e+06 M⁻¹ s⁻¹.
For the molecule B4, the Kd turned out to be 17.8 nM, the koff worked out at 0.0287 s⁻¹ and the kon was determined as 1.56e+06 M⁻¹ s⁻¹.
On the same counts, the results for B9 are 5.68 nM, 0.00243 s⁻¹ and 426000 M⁻¹ s⁻¹.
B10 gave a Kd of 0.22 nM, a koff of 0.000426 s⁻¹ and a kon of 1.98e+06 M⁻¹ s⁻¹.
As for B11, the Kd was found to be 0.09 nM, the koff worked out at 0.000244 s⁻¹ and the on-rate (kon) stood at 2.78e+06 M⁻¹ s⁻¹.
The molecule B12 showed an on-rate (kon) of 230000 M⁻¹ s⁻¹.
In turn, B13 returned a Kd of 0.43 nM, a koff of 0.000259 s⁻¹ and a kon of 597000 M⁻¹ s⁻¹.
On to B14, for which the Kd was determined as 4.34 nM, the koff is 0.0013 s⁻¹ and the kon was found to be 300000 M⁻¹ s⁻¹.
In the case of B5, the Kd was found to be 6.74 nM, the koff was 0.00228 s⁻¹ and the kon was 338000 M⁻¹ s⁻¹.
Molecule B15 came in with a Kd of 0.22 nM, a koff of 0.000179 s⁻¹ and an on-rate (kon) of 815000 M⁻¹ s⁻¹.
Molecule B6 displayed a Kd of 48.9 nM, a koff of 0.0307 s⁻¹ and a kon of 629000 M⁻¹ s⁻¹.
Consider B16, for which the Kd is 0.67 nM, the dissociation rate constant (koff) came out at 0.00205 s⁻¹ and the kon came out at 3.07e+06 M⁻¹ s⁻¹.

For the origin of these results see patent US20220380459A1.
